B1: CPEB3 Ribozyme (parent)
chain: UAACAGGGGGCCACAGCAGAAGCGUUCACGUCGCAGCCCCUGUCAGAUUCUGGUGAAUCUGCGAAUUCUGCUGUAUAUCUC

Variants of: B1
Experiment: self-cleavage, relative activity (ratio to wild type); higher = more cleavage; in vitro, sequencing
Summary of the method: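 Relative activity was defined as the cleaved/total read fraction for a variant divided by the same fraction for the unmutated ribozyme. CPEB3 self-cleaving ribozyme libraries were made by rounds of error-prone PCR, barcoded, and transcribed in vitro with T7 RNA polymerase for 5 hours at 37°C, and cleavage ran through transcription plus a 15 min DNase I step before EDTA. Illumina sequencing of template-switched reverse transcripts gave the reads, and DNA sequencing mapped the barcodes. Averages come from three batches, using variants with at least 5 reads.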

Variant | self-cleavage
G6U A65U | 0.23
A5U C71U | 0.79
A5U C71A | 0.48
G6A U58G | 0.29
G6A U58C | 0.14
G6A U58A | 0.27
A5U G9A | 0.45
A5U G9U | 0.34
G6C A18U | 0.07
G6A G61A | 0.34
G6A U67C | 0.32
G6A U67A | 0.4
G6A C17A | 0.54
G6A C17U | 0.22
A5U A45U | 0.54
A5U A45G | 1.02
G6A G16A | 0.29
G6A G36A | 0.19
A5U C17G | 0.26
A5U C17U | 0.73
A5U | 1.04
G6A G10C | 0.23
G6A G10A | 0.41
G6A C79U | 0.55

Variant | self-cleavage
G6A C79A | 0.38
A5U C27U | 0.22
A5U C27G | 0.21
A5U C81U | 1.17
A5U C81A | 1.24
A5U C81G | 1.29
A5U C38A | 0.34
G6A U41G | 0.18
G6A U41A | 0.26
G6A U41C | 0.31
G6C A45U | 0.32
G6A A65G | 0.16
G6A A65U | 0.22
G6A C32A | 0.26
G6A A28U | 0.4
G6A A28G | 0.29
G6A A28C | 0.15
A5G U80A | 0.79
A5G U80C | 0.66
A5U A56U | 0.9
A5U A56C | 0.91
A5U A56G | 0.81
A5U C29A | 0.36
A5U C29U | 0.54

Variant | self-cleavage
G6A A15G | 0.36
G6A A15C | 0.42
G6A A15U | 0.18
A5U G30C | 0.4
A5U G30A | 0.27
A5U G30U | 0.26
G6A U31C | 0.34
G6A U31A | 0.21
A5U G22A | 0.28
A5U C40A | 0.09
A5U C40U | 0.78
A5U U54C | 1.09
A5U U54A | 1.1
G6A G42A | 0.15
G6C G42A | 0.31
G6C U26A | 0.47
G6C U25A | 0.5
A5U U43C | 0.76
A5U U43A | 1.24
A5U U74A | 1.24
A5U U74C | 1.14
G6A U76G | 0.14
G6A U76C | 0.27
G6A U60A | 0.33

Variant | self-cleavage
G6A U60C | 0.27
G6A C14U | 0.57
A5U G46A | 0.36
G6C A65G | 0.46
G6A C38U | 0.3
G6A C38A | 0.1
G6A G30A | 0.19
A5U U66G | 0.93
A5U U66A | 0.46
A5U U66C | 0.45
A5U U60C | 0.58
A5U U60A | 0.76
A5U U25C | 0.41
A5U U25A | 0.26
A5U A57C | 0.7
A5U A57U | 0.67
A5U A57G | 0.97
A5U U26A | 1.05
A5U U26C | 0.72
G6A C29U | 0.08
G6A C29A | 0.05
G6C U41C | 0.49
A5U G19A | 0.72
A5U A47G | 0.95

Variant | self-cleavage
G6C U48C | 0.47
G6A G7A | 0.09
G6A G7U | 0.07
G6C G19U | 0.2
G6C G19A | 0.48
A5U A28U | 1.12
A5U A28C | 0.77
A5U A28G | 0.83
A5U A77U | 1.16
A5U A77G | 1.09
A5U C37U | 0.82
A5U G10A | 0.12
A5U G10C | 0.5
G6U A21G | 0.29
G6U A21C | 0.17
A5U A20G | 0.91
A5U A20C | 0.49
G6A G46U | 0.32
G6A A47G | 0.46
G6A A47U | 0.32
A5U G8A | 0.12
A5U G8C | 0.1
G6A A64U | 0.2
G6A A64G | 0.27

Variant | self-cleavage
A5U U31C | 0.92
A5U U31A | 0.5
G6A U78C | 0.24
G6A U78A | 0.11
A5U A15C | 1.18
A5U A15U | 1.1
A5U A15G | 0.93
G6A A21U | 0.31
G6A A21G | 0.49
A5U G33C | 0.16
A5U G33A | 0.27
G6A C62G | 0.42
G6A C62U | 0.25
G6A C62A | 0.16
G6A G53A | 0.34
G6A G53C | 0.43
A5U C14A | 1.19
A5U C14U | 0.88
G6A U66C | 0.29
G6U A77U | 0.16
G6C C27U | 0.33
G6U A57G | 0.43
G6C U58A | 0.21
G6C | 0.36

Variant | self-cleavage
G6A | 0.4
G6U | 0.35
A5U G55U | 1.15
A5U C23G | 0.08
A5U C23U | 0.25
G6A U72C | 0.4
G6A U72A | 0.2
G6A U72G | 0.27
G6A U43A | 0.49
G6A U43C | 0.19
A5U G24U | 0.43
A5U G24A | 0.4
A5U G24C | 0.36
G6U A64U | 0.07
G6U A64G | 0.32
G6C G53A | 0.59
G6A U80A | 0.53
G6A U80C | 0.45
G6C C71A | 0.21
G6U A15C | 0.19
G6U A15U | 0.41
G6A A57U | 0.29
G6A A57G | 0.34

— the RNAGym collection of RNA variant scans (doi:10.1093/nar/gkz1192)
